Target: T1, Mas70p (S. cerevisiae (endogenous in yeast …, UniProt P07213 1-617))
T1 sequence (looked up): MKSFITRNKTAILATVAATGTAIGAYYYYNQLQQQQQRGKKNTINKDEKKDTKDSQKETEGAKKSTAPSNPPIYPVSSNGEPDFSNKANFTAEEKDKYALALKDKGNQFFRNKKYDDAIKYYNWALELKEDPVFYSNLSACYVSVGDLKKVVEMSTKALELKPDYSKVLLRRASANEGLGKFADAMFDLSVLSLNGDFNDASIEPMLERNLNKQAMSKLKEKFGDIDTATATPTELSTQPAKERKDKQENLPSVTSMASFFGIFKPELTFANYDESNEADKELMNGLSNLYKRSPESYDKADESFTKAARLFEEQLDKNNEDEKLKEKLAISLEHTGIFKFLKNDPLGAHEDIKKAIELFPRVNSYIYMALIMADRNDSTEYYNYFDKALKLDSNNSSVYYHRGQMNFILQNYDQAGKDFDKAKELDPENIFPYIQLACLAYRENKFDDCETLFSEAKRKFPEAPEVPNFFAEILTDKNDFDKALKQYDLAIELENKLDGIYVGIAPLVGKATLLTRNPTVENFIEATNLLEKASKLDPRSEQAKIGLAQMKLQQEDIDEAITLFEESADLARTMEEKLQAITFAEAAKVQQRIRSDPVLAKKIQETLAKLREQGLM
Assay: co-IP

B1: Mas37p (natural protein)
chain: MVKGSVHLWGKDGKASLISVDSIALVWFIKLCTSEEAKSMVAGLQIVFSNNTDLSSDGKLPVLILDNGTKVSGYVNIVQFLHKNICTSKYEKGTDYEEDLAIVRKKDRLLEYSLLNYVDVEISRLTDYQLFLNTKNYNEYTKKLFSKLLYFPMWYNTPLQLRSQARENCEEIIGSLTLEDDEEFVESKAMESASQLAQSKTFKIAHKNKIKGKQELQQVKYNLQFDNRLQSCVSNWLAARKKLDDSVILSSDLLFLANLYVQLGLPDGNRIRSKLEQTFGSELLNSMSNKIDDFVHRPSNNLEQRDPQFREQGNVVMSLYNLACKYI
stoichiometry N: 1 mol Mas37p per mol Mas70p

— PMC2120374 (The Journal of Cell Biology, 1995)
